Read-outs that look alike come from different tables or passages of the source. Where a SMILES comes first, the peptide text is derived from it. The star is where a group is joined. X1 = O=C(O)c1cc(N*)ccc1O
Tests used:
LO-2 cells [1] = test: Expression of Cat-B and CHOP in hepatocytes after drug exposure; format: cell-based, human; conditions: LO-2 cells after treatment with APAP
Description: We initially investigated the changes within human hepatocytes in response to drug exposure.

APAP-induced ALF model = test: Therapeutic efficacy in APAP-induced ALF mouse model; format: in vivo, C57BL/6 mice; conditions: ALF mice
Experimental: The in vivo therapeutic efficacy of SPNs was evaluated in an APAP-induced ALF model.
Following 24 h of treatment, liver tissue was collected from the mice and then stained with H&E, fluorescent dye-conjugated antibodies (TNF-α, 506303, Biolegend; IL-6, 504503, Biolegend; and IL-10, 505005, Biolegend) or TUNEL (G3250, Promega). A portion of the liver tissues was dispersed in lysis buffer and subsequently centrifuged to remove debris, followed by western blot for MAPK and assessment of cytokines, such as TNF-α, IL-6, IL-1β and IL-10, via ELISA assays. Hematological parameters were analyzed by KNOTUS (Incheon, Republic of Korea).

Cat-B = target: T1, Cat-B (Homo sapiens, UniProt P07858); test: Enzyme-specific cleavage by HPLC, Cat-B; format: in vitro ADME; conditions: 1 h, pH 5.5 MES buffer, 37°C, HPLC and LC/MS
T1 construct: purchased R&D systems 953CY
Experimental: (§1) After a 30 min reaction, the final product was purified and analyzed using an LC/MS system (Agilent 1200 Series HPLC system). The hydrodynamic size and zeta potential were analyzed by using a Zetasizer (Nano ZS, Malvern Instruments, Worcestershire, UK). The morphology of SPNs in distilled water was observed using transmission electron microscopy (CM-200, Philips, USA). The target enzyme-specific cleavage was evaluated through HPLC analysis after incubation with Cat-B (953CY, R&D systems, MN, USA), Cat-E (1294-AS, R&D systems), Cat-D (1014-AS, R&D systems), Cat-L (952-CY, R&D systems), MMP-9 (911-MP, R&D systems) or Cas-3 (707-C3/CF, R&D systems) in pH 5.5 2-(N-morpholino)ethane sulfonic acid (MES) buffer at 37°C.

Cat-D = target: T2, Cat-D (Homo sapiens, UniProt P07339); test: Enzyme-specific cleavage by HPLC, Cat-D; format: in vitro ADME; conditions: 24 h, pH 5.5 MES buffer, 37°C
T2 construct: purchased R&D systems 1014-AS
T2 sequence (P07339 65-412): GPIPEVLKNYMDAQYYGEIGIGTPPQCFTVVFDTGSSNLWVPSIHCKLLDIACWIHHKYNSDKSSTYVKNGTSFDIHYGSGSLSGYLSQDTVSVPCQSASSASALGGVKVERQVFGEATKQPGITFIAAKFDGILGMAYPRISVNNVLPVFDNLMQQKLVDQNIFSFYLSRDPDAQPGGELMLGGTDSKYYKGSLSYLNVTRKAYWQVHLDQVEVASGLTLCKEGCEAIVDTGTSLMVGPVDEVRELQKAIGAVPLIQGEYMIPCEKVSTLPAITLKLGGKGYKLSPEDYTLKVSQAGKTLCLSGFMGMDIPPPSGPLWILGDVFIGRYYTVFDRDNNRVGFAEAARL
Experimental: as §1

Cat-E = target: T3, Cat-E (Homo sapiens, UniProt P14091); test: Enzyme-specific cleavage by HPLC, Cat-E; format: in vitro ADME; conditions: 24 h, pH 5.5 MES buffer, 37°C
T3 construct: purchased R&D systems 1294-AS
T3 sequence (P14091 54-396): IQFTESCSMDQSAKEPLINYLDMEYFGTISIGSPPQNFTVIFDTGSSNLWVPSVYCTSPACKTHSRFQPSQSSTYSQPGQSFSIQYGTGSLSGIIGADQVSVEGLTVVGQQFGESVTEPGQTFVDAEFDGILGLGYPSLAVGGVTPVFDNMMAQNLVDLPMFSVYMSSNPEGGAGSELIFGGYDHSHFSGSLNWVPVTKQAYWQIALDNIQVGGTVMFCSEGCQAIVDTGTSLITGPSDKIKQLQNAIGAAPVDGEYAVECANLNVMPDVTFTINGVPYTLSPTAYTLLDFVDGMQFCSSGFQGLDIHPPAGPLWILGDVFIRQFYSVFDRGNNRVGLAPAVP
Experimental: as §1

Cat-L = target: T4, Cat-L (Homo sapiens, UniProt P07711); test: Enzyme-specific cleavage by HPLC, Cat-L; format: in vitro ADME; conditions: 24 h, pH 5.5 MES buffer, 37°C
T4 construct: purchased R&D systems 952-CY
T4 sequence (P07711 114-333): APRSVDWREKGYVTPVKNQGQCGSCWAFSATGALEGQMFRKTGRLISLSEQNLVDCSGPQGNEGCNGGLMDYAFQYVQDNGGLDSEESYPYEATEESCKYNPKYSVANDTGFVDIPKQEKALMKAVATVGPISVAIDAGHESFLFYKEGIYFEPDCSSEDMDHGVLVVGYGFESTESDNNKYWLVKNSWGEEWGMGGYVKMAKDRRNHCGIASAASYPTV
Experimental: as §1

Caspase 3 (Cas-3) = target: T5, Caspase 3 (Cas-3) (Homo sapiens, UniProt P42574); test: Enzyme-specific cleavage by HPLC, Caspase 3; format: in vitro ADME; conditions: 24 h, pH 5.5 MES buffer, 37°C
T5 construct: purchased R&D systems 707-C3/CF
T5 sequence (P42574 29-175 limits assumed): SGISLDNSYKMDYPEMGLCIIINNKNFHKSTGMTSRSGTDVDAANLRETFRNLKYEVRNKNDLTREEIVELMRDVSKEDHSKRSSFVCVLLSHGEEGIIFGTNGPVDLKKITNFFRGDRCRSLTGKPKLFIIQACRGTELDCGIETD
T5 sequence (P42574 176-277 limits assumed): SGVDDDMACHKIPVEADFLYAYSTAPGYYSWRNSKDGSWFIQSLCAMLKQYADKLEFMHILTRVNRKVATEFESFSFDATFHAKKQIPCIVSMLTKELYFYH
Experimental: as §1

[2] = target: T6, matrix metalloproteinase 9 (MMP-9) (Homo sapiens, UniProt P14780); test: Enzyme-specific cleavage by HPLC, MMP-9; format: in vitro ADME; conditions: 24 h, pH 5.5 MES buffer, 37°C
T6 construct: purchased R&D systems 911-MP
T6 sequence (P14780 94-707): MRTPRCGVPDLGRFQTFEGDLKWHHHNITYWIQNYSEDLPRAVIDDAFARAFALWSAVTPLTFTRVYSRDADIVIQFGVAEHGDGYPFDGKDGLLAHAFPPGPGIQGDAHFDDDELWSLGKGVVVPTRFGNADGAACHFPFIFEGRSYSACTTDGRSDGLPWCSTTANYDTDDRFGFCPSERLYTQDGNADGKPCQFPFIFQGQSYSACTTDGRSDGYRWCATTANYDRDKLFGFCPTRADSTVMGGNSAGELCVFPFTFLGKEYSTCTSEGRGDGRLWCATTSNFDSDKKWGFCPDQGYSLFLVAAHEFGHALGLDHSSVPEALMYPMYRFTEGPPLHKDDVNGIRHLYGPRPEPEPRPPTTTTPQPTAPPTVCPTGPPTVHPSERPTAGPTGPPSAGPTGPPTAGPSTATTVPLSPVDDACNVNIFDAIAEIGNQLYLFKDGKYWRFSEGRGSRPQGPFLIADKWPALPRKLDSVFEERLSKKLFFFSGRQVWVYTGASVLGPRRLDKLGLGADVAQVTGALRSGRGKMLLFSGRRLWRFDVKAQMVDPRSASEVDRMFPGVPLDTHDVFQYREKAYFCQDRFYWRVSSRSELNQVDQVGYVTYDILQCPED
Experimental: as §1

LO-2 cells [3] = test: Cytotoxicity assay (CCK-8), LO-2; format: cell-based, human; conditions: 0 to 20 mM, 24 h, compared with mesalamine
MIHA cells = test: Cytotoxicity assay (CCK-8), MIHA; format: cell-based, human; conditions: 0 to 20 mM, 24 h, compared with mesalamine
HepG2 cells = test: Cytotoxicity assay (CCK-8), HepG2; format: cell-based; conditions: 0 to 20 mM, 24 h, compared with mesalamine
normal C57BL/6 mice = conditions: mouse, in vivo
Experimental: The body weight was measured every two days. Seven days after treatment, the hematological parameters were assessed, including AST, ALT, BUN, creatinine, LDH, CK, red blood cell (RBC), hemoglobin (HGB), hematocrit (HCT), platelet (PLT), white blood cell (WBC), neutrophil (NEU) and lymphocyte (LYM). Major organs were collected from the mice and then observed using optical microscopy after H&E staining (BX 51, Olympus, USA). The levels of TNF-α, IL-1β and IL-6 in homogenized kidney tissues were quantified via ELISA assays.

healthy LO-2 cells [4] = test system: healthy LO-2 cells
Experimental: (§2) The cells were then washed with DPBS and dispersed in lysis buffer, followed by centrifugation at 12,000 rpm for 30 min to remove cell debris. Subsequently, the proteins were quantified using a BCA assay kit (23221, Thermo Fisher Scientific), boiled after mixing with sodium dodecyl sulfate loading buffer (NaraBio, Gyeonggi-do, Republic of Korea) for 5 min, and separated by 10% SDS polyacrylamide gel electrophoresis. […] HMGB1 and HSP70 were analyzed in the supernatants after incubating LO-2 cells using the same protocol described above. Finally, the membranes were incubated with goat anti-rabbit immunoglobulin-HRP antibody for 2 h.

[5] = Biodistribution by NIRF imaging in naive and ALF mice; format: in vivo, C57BL/6 mice; conditions: ALF mice, intravenous
Experimental: The in vivo behavior of SPNs was assessed in healthy mice and APAP-induced ALF models. […] Fluorescence intensity in the images was quantified using LivingImage software. Ex vivo NIRF imaging was conducted with major organs collected from the mice 9 h post-treatment.

healthy LO-2 cells [6] = test: Release of DAMPs (HMGB1, HSP70) from healthy hepatocytes; conditions: supernatants, western blot
Experimental: as §2

Compound: CC(=O)Nc1ccc(O)cc1 [APAP, acetaminophen]
- Cat-B level compared to the naive cells (LO-2 cells [1]): 4.22 fold
- increase in C/EBP homologous protein (CHOP) compared to the naive cells (LO-2 cells [1]): 1.58 fold

Compound: CC(=O)N[C@@H](CS)C(=O)O [NAC, N-acetylcysteine]
- effects in preventing body weight loss and histohematological changes (APAP-induced ALF model; NAC 100 mg/kg i.v., compared with SPNs): limited effects

Compound: CC(=O)N[C@@H](Cc1ccccc1)C(=O)N[C@@H](CCCNC(=N)N)C(=O)N[C@@H](CCCNC(=N)N)C(=O)NCC(=O)Nc1ccc(O)c(C(=O)O)c1 [SPNs] (Ac-FRRG-X1)
- cleavage upon incubation with Cat-B (Cat-B): completely decomposed into mesalamine
- cleavage upon incubation with Cat-D (Cat-D): no detectable cleavage
- cleavage upon incubation with Cat-E (Cat-E): no detectable cleavage
- cleavage upon incubation with Cat-L (Cat-L): no detectable cleavage
- cleavage upon incubation with Cas-3 (Caspase 3 (Cas-3)): no detectable cleavage
- cleavage upon incubation with MMP-9 [2]: no detectable cleavage
- toxicity to LO-2 cells (cell viability) (LO-2 cells [3]): significantly minimized the toxicity of mesalamine
- toxicity to MIHA cells (cell viability) (MIHA cells): significantly minimized the toxicity of mesalamine
- toxicity to HepG2 cells (cell viability) (HepG2 cells): significantly minimized the toxicity of mesalamine
- histopathological toxicities in major organs (normal C57BL/6 mice): not observed
- release of DAMPs (HMGB1 and HSP70) (healthy LO-2 cells [4]): did not increase DAMP release

Compound: CCN1\C(=C/C=C/C=C/C2=[N+](CCCCCC(=O)O)c3ccc4c(S(=O)(=O)O)cc(S(=O)(=O)O)cc4c3C2(C)C)C(C)(C)c2c1ccc1c(S(=O)(=O)[O-])cc(S(=O)(=O)O)cc21 [free Cy5.5]
- in vivo clearance (NIRF imaging) [5]: rapid in vivo clearance

Compound: Nc1ccc(O)c(C(=O)O)c1 [mesalamine]
- body weight change (APAP-induced ALF model; 24 h of treatment, mesalamine or SPNs 5 mg/kg mesalamine content i.v.): even more severe weight loss relative to the PBS group
- AST and ALT levels (APAP-induced ALF model; 24 h post-treatment, 5 mg/kg mesalamine content i.v.): higher levels of these parameters compared to the PBS group
- histopathological toxicities in major organs (normal C57BL/6 mice): substantial structural abnormalities and damaged areas in major organs
- release of DAMPs (HMGB1 and HSP70) (healthy LO-2 cells [6]): significantly higher levels

— PMC11700871 (Theranostics, 2025)
